Consider six molecules from patent US20240076386A1 (Pfizer, published 2024).

Experiment [1] has as its target T1, human E-selectin, cell-surface expressed (human, UniProt P16581 22-610).
T1 construct: also called CHO-human E-selectin cells; human CHO-E
T1 sequence: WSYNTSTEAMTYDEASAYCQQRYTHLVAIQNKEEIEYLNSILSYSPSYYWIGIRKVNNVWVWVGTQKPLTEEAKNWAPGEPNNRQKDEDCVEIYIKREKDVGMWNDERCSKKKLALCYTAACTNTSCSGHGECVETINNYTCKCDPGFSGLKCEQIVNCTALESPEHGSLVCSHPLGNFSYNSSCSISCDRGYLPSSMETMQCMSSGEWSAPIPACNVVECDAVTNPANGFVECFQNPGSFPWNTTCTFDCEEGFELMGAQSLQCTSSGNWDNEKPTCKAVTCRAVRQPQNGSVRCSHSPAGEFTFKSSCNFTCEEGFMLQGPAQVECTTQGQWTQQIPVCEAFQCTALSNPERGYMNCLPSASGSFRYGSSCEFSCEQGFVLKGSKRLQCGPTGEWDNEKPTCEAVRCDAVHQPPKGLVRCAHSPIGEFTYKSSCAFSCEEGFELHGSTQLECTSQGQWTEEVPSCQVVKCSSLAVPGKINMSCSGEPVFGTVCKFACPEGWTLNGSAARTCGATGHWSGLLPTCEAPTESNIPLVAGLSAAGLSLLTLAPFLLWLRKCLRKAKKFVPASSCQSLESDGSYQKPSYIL
Kind of experiment: competition ELISA on CHO cells vs sialyl Lewis A-PAA-biotin/SA-HRP. As to the method:
The ability of anti-E-selectin antibodies to neutralize ligand binding was assessed in a static neutralization assay using a competition enzyme-linked immunosorbent assay (ELISA) to evaluate the neutralization of the sialyl Lewis antigen to Chinese hamster ovary cells (CHO) engineered to express E-selectin.
Briefly, CHO cells expressing human E-selectin were grown in culture medium (MEM (Minimum Essential Medium) Alpha Medium, supplemented with 10% dialyzed fetal bovine serum, 100 nM methotrexate and 100 Units/mL penicillin and 100 μg/mL streptomycin) and were seeded at 12,500 cells per well into a 96 well tissue culture plate and incubated at 37° C., 5% CO₂ for 48 hours to form a confluent monolayer. Plates were subsequently washed twice with 200 μL of calcium magnesium free phosphate buffered saline (PBS). […] Plates were then washed twice with 200 μL of calcium magnesium free PBS. Following the incubation, the cells were washed twice with 200 μL of wash buffer containing 2 mM of calcium chloride (50 mM TRIS [trisaminomethane], 150 mM sodium chloride; 0.05% polysorbate 20, pH 7.4; 2 mM of calcium chloride). Signal was developed by adding 100 μL of 1-Step Ultra TMB substrate (Thermo Scientific, 34028) and incubating for 30 minutes at room temperature. Reactions were stopped using 2 M of sulfuric acid and absorbance read at 450 nm (Spectramax M5e). Data were analyzed and graphed using GraphPad Prism software (Version 8.0.2).

The target of experiment [2] is T2, cynomolgus monkey E-selectin extracellular domain with 10 His purification tail (cynomolgus monkey, UniProt P16581 22-554 (human entry)).
T2 construct: also called cynomolgus E-selectin; truncated cynomolgus monkey E-selectin
T2 chain: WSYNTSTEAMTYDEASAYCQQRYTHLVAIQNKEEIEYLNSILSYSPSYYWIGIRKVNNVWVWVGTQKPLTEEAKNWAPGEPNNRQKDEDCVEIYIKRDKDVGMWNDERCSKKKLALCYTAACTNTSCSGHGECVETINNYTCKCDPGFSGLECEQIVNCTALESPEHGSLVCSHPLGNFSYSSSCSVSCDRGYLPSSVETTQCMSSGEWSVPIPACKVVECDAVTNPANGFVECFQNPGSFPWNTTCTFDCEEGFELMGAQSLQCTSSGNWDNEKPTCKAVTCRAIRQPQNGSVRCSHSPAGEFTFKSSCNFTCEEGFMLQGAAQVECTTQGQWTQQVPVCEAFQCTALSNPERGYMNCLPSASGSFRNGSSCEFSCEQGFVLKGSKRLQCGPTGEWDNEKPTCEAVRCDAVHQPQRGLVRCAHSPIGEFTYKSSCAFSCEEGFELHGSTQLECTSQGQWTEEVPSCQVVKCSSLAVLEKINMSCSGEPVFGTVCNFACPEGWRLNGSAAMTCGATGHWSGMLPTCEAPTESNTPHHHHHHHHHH
Kind of experiment: SPR, antibody captured, E-selectin analyte. As to the method: To characterize binding of antibodies to human, cynomolgus monkey, and mouse E-selectin, an antibody was diluted to 0.5 μg/mL in HBS-EP+ and captured by the anti-human IgG immobilized on flow cells 2, 3 and 4 for 30 seconds to 1 minute at a flow rate of 10 μL/minute to achieve a capture level of 70 to 300 RU. Flow cell 1 was used as a reference surface. […] HBS-EP+ buffer cycles collected for each captured antibody were used for double-referencing (Myszka D G. J. Mol. Recognition 1999; 12(5):279-84). At the end of each cycle, the entire anti-IgG surface was regenerated by a 30 second pulse of 3 M MgCl₂ and a 30 second pulse of ionic buffer (1.83 M MgCl₂, 0.92 M Urea, 1.83 M Guanidine HCl, pH 7.4) (Andersson K. Analy. Chem. 1999; 71(13): 2475-81). Kinetic assays were conducted at 25° C. at a collection rate of 10 Hertz (Hz) on a BIAcore™ T200 instrument (GE Healthcare). Rate constants and affinities were determined by fitting the data to a 1:1 binding model in BIAcore™ T200 Evaluation software version 3.0 (GE Healthcare).
A general note: SPR reads the build-up and loss of mass on a sensor chip optically.

B1: anti-E-selectin antibody 0159 chimera (antibody, human IgG1, kappa, V domains shown)
VH: EVQLQQSGAELGKPGTSVKLSCKVSGYNIRSTYMHWVSQRPGKGLEWIGRIDPANGNTIYAEKFKRKATLTADTSSNTAYMQLSQLKSDDRAIYFCAMEVRVSFEYWGQGVMVTVSS
VL: DIQMTQSPSFLSASVGDRVTINCKASQNINKYLDWYQQKLGEGPKLLIYYTNNLHTGIPSRFSGSGSGTDFTLTISSLQPEDVATYFCLQHDSGYTFGAGTKLELKR
notes: rat VH/VL on effector-null human IgG1 and human kappa
In experiment [1], B1 yielded a half-maximal inhibitory concentration (IC50) of 3.24 nM. In experiment [2], this molecule gave a Kd of 244 nM, a koff of 0.0374 s⁻¹, an on-rate (kon) of 154000 M⁻¹ s⁻¹ and a t½ of 18.5 s.

B2: anti-E-selectin antibody 0170 chimera (antibody, human IgG1, kappa, V domains shown)
VH: EVQLQQSGAELGKPGTSVKLSCKVSGYSIRSTYMHWVNQRPGKGLEWVGRIDPANGNTIYAERFKNKATLTADTSSNTAYMQLSQLKSDDTAIYFCAVEILGIFDYWGQGVMVTVSS
VL: DIQMTQSPSFLSASVGDRVTINCKASQNIDKYLDWYQQKLGEAPKLLMYNTNSLHTGIPSRFSGSGSGTDFTLTISSLQPEDVATYFCLQHNSGYTFGAGTKLELKR
notes: as for B1
In experiment [1], B2 displayed an IC50 of 2.3 nM. In experiment [2], this molecule registered a Kd of 492 nM, a koff of 0.0564 s⁻¹, a kon of 115000 M⁻¹ s⁻¹ and a t½ of 12.3 s.

B3: anti-E-selectin antibody 0180 chimera (antibody, human IgG1, kappa, V domains shown)
VH: EVQLQQSGAELGKPGTSVKLSCKVSGYKIRSSYMHWVNQRPGKGLEWIGRIDPANGNTIYGDKFKSKATLTSDTSSNTAYIQLSQLKSDDTAIYFCAIDIGTTFDYWGQGVMVTVSS
VL: DIQMTQSPSFLSASVGDRVTINCKASQHINRYLNWYQQKLGEAPKLLIYDANNLQTGIPSRFSGSGSGTDFTLTISSLQPEDVATYFCLQHNSWPNTFGAGTKLELKR
notes: as for B1
Take B3: the IC50 in experiment [1] was 3.83 nM. Further, in experiment [2], binding was characterised by a dissociation constant (Kd) of 3140 nM, the koff came to 0.749 s⁻¹, the kon stood at 245000 M⁻¹ s⁻¹ and the t½ worked out at 0.93 s.

B4: anti-E-selectin antibody 0164 chimera (antibody, human IgG1, kappa, V domains shown)
VH: EVQLQQSGAEFGKPGTSVKLSCKVSGYNIRSSYMHWVNQRPGKGLEWIGRIDPANGNTIYAEKFKIKAILTADSSSNTAYMQLSQLKSDDTAIYFCAMDLYSTSEYWGQGVMVTVSS
VL: DIQMTQSPSFLSASVGDRVTINCKTSQNINRYLNWYQQKLGEAPKLLIYNANSLQTGIPSRFSASGSGTDFTLTINSLQPEDVATYFCLQDNSWPLTFGSGTKLEIKR
notes: as for B1
B4: the IC50 in experiment [1] is 2.77 nM. In experiment [2], this molecule displayed a Kd of 45.4 nM, a koff of 0.012 s⁻¹, a kon of 265000 M⁻¹ s⁻¹ and a t½ of 57.8 s.

B5: anti-E-selectin antibody 0158 chimera (antibody, human IgG1, kappa, V domains shown)
VH: QVQLKESGPGLVQPSETLSLTCTVSGFSISTYNVHWLRQPPGKGLEWMGMMWSGGSPDYNSALKSRLSISRDTSKNQVFLKMNSLQSEDTTTYYCARWGGGFDYWGQGVMVTVSS
VL: DIVLTQSPTTLSVTPGETVSLSCRASHSIGTNLHWYQQKTNESPRLLIKFTSQSISGIPSRFSASGSGTDFTLNINNVEFDDVSSYFCQQTQSWPLTFGSGTKLEIKR
notes: as for B1
Molecule B5 displayed an IC50 in experiment [1] of 2.87 nM.

B6: anti-E-selectin antibody 0039 chimera (antibody, human IgG1, kappa, V domains shown)
VH: QVQLKETGPGLVQPTQTLSITCTVSGFSLTGYYMQWVRQTPGKGLEWMGFIRSSGSTEYNSEFKSRLSISRDTSKNQVFLKMNSLKTEDTGVYYCARCPYKYSSFVYVGVMDAWGQGAPVTVSS
VL: EIVMTQSPTSMSTSIGERVTLNCKASQTVGINVDWYQQTPGQPPKLLIYGASNRHTGVPDRFTGSGFGRDFTLTISNVEAEDLAVYCCLQYGSIPHTFGPGTKLELKR
notes: as for B1
Turning to B6, the IC50 in experiment [1] was 3.76 nM. In addition, in experiment [2], the Kd was 45.8 nM, the koff was determined as 0.00377 s⁻¹, the kon amounted to 82400 M⁻¹ s⁻¹ and the t½ was 184 s.

One may read the IC50 as the concentration needed to halve the response being measured. Broadly, the Kd is the constant that tells how readily two partners part at equilibrium. One may read the koff as the rate constant with which the complex falls apart. The kon is the second-order rate constant of association. The term t½ denotes how long it takes for the measured level to halve.
